In patent US20100266530A1:

Target: N-terminal GFP-tagged tail-less hFcRn (ssECTM: signal sequence-GFP-ectodomain-transmembrane domain) stably expressed on HEK293 cells (human) [GFP: P42212]
Assay: flow cytometry on ssECTM cells at pH 7.5, 50 ug/ml hIgG-AF647, no competitor

human IgG (hIgG) (antibody) was tested, and the MFI was 6 MFI.
